This data set is described as follows: Tolerability observations after IV dosing in the rat PK study. The conditions noted are these: rats, 1 mg/kg dose, three rats. It is filed as in vivo. Here is the method: For PK studies, a 0.1 mg/mL solution was dosed at 10 mL/kg such that a 1 mg/kg IV bolus dose was introduced by tail vein injection into rats Following compound administration, blood was collected at 0.083 h, 0.25 h, 0.5 h, 1 h, 2 h, 4 h, 8 h, and 24 h post dose into lithium heparin coated vacuum tubes. Tubes were inverted for 5 minutes and then placed on wet ice until centrifuged for 5 minutes at 4° C. at 6000 rpm. Plasma was harvested, frozen at −80° C. and shipped to for bioanalysis on dry ice.

SMILES strings stand for the structures.

Take `CCCCN(CCSSC[C@@H]1NC(=O)[C@@H](Cc2ccccc2)NC(=O)[C@H](CC(=O)O)NC(=O)CNC(=O)[C@H](CCCNC(=N)N)NC1=O)C(=O)O[C@@H](C(=O)OC1C[C@@]2(O)[C@@H](OC(=O)c3ccccc3)[C@@H]3[C@]4(OC(C)=O)CO[C@@H]4C[C@H](OC)[C@@]3(C)C(=O)[C@H](OC)C(=C1C)C2(C)C)[C@@H](NC(=O)OC(C)(C)C)c1ccccc1` (some centres unmarked) [BT-568]: the “Clinical signs of toxicity post dose” value is “lethargy and labored breathing were observed immediately post dose in all three rats”; the Mortality result is “one of the three animals died”.

Source of the values: US20220288229A1 (priority 2012, published 2022).
